Experiment [1] has as its target T1, HLA-DR7 (HLA-DRB1*07:01) (human).
T1 construct: mature; purified from homozygous EBV-transformed lymphoblastoid cells with antibody L243
In words: competition ELISA vs biotin-YKL. (ELISA stands for enzyme-linked immunosorbent assay.)

The target in experiment [2] is T2, HLA-DR3 (HLA-DRB1*03:01) (human).
T2 construct: mature; purified from homozygous EBV-transformed lymphoblastoid cells with antibody L243
Kind of experiment: competition ELISA vs biotin-MT 2-16.

Experiment [3] has as its target T3, HLA-DR13 (HLA-DRB1*13:01) (human).
T3 construct: mature; purified from homozygous EBV-transformed lymphoblastoid cells with antibody L243
Kind of experiment: competition ELISA vs biotin-B1 21-36.

In experiment [4] the target is T4, HLA-DR15 (HLA-DRB1*15:01) (human).
T4 construct: mature; purified from homozygous EBV-transformed lymphoblastoid cells with antibody L243
Kind of experiment: competition ELISA vs biotin-A3 152-166.

The target of experiment [5] is T5, HLA-DR1 (HLA-DRB1*01:01) (human).
T5 construct: mature; class II HLA molecule purified from homozygous EBV-transformed lymphoblastoid cells with antibody L243
In words: competition ELISA vs biotin-HA 306-318.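 Also: HLA and competitor incubated 24 to 72 h, maximal signal taken from wells lacking competitor, background from wells lacking HLA molecule.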

In experiment [6] the target is T6, HLA-DRB5 (HLA-DRB5*01:01) (human).
T6 construct: mature; purified from homozygous EBV-transformed lymphoblastoid cells with antibody L243
Kind of experiment: competition ELISA vs biotin-HA 306-318.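 Also: HLA and competitor incubated 24 to 72 h, maximal signal taken from wells lacking competitor, background from wells lacking HLA molecule.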

For experiment [7], the target named is T7, HLA-DR4 (HLA-DRB1*04:01) (human).
T7 construct: mature; purified from homozygous EBV-transformed lymphoblastoid cells with antibody L243
In words: competition ELISA vs biotin-HA 306-318.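 Also: HLA and competitor incubated 24 to 72 h, maximal signal taken from wells lacking competitor, background from wells lacking HLA molecule.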

The target in experiment [8] is T8, HLA-DR11 (HLA-DRB1*11:01) (human).
T8 construct: mature; purified from homozygous EBV-transformed lymphoblastoid cells with antibody L243
In words: competition ELISA vs biotin-HA 306-318.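 Also: HLA and competitor incubated 24 to 72 h, maximal signal taken from wells lacking competitor, background from wells lacking HLA molecule.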

The target in experiment [9] is T9, HLA-DRB3 (HLA-DRB3*01:01) (human).
T9 construct: mature; purified from homozygous EBV-transformed lymphoblastoid cells with antibody L243
In words: competition ELISA vs biotin-LOL 191-210.

The target of experiment [10] is T10, HLA-DP401 (HLA-DPB1*04:01) (human, UniProt P20036 29-222).
T10 construct: mature; purified from homozygous EBV-transformed lymphoblastoid cells with antibody B7/21
Kind of experiment: competition ELISA vs biotin-Oxy 271-287.

Experiment [11] addresses T11, HLA-DP402 (HLA-DPB1*04:02) (human, UniProt P20036 29-222).
T11 construct: mature; purified from homozygous EBV-transformed lymphoblastoid cells with antibody B7/21
Kind of experiment: competition ELISA vs biotin-Oxy 271-287.

Experiment [12] concerns the target T1, HLA-DR7 (HLA-DRB1*07:01). In words: competition ELISA vs biotin-YKL. The source holds these as a separate data set.
The target in experiment [13] is T4, HLA-DR15 (HLA-DRB1*15:01). Kind of experiment: competition ELISA vs biotin-A3 152-166. This is another data set of the same source.
For experiment [14], the target named is T5, HLA-DR1 (HLA-DRB1*01:01). Kind of experiment: competition ELISA vs biotin-HA 306-318. This is another data set of the same source.
Experiment [15] has as its target T6, HLA-DRB5 (HLA-DRB5*01:01). Kind of experiment: competition ELISA vs biotin-HA 306-318. The source holds these as a separate data set.
Experiment [16] deals with T7, HLA-DR4 (HLA-DRB1*04:01). Kind of experiment: competition ELISA vs biotin-HA 306-318. This is another data set of the same source.
Experiment [17] deals with T8, HLA-DR11 (HLA-DRB1*11:01). Kind of experiment: competition ELISA vs biotin-HA 306-318. The source holds these as a separate data set.
Experiment [18] deals with T10, HLA-DP401 (HLA-DPB1*04:01). In words: competition ELISA vs biotin-Oxy 271-287. The source holds these as a separate data set.
Experiment [19] has as its target T12, HLA-DRB4 (HLA-DRB4*01:01) (human).
T12 construct: mature; purified from homozygous EBV-transformed lymphoblastoid cells with antibody L243
Kind of experiment: competition ELISA vs biotin-E2/E168.

Experiment [20] has as its target T2, HLA-DR3 (HLA-DRB1*03:01). Kind of experiment: competition ELISA vs biotin-MT 2-16. The source holds these as a separate data set.
The target in experiment [21] is T11, HLA-DP402 (HLA-DPB1*04:02). Kind of experiment: competition ELISA vs biotin-Oxy 271-287. This is another data set of the same source.
The target of experiment [22] is T12, HLA-DRB4 (HLA-DRB4*01:01). In words: competition ELISA vs biotin-E2/E168. The source holds these as a separate data set.
In experiment [23] the target is T3, HLA-DR13 (HLA-DRB1*13:01). Kind of experiment: competition ELISA vs biotin-B1 21-36. This is another data set of the same source.

Where two headings read alike, the source gives them in different places. No end group written: not given here.

Consider 16 molecules from patent US20180086804A1 (COMMISSARIAT A L ENERGIE ATOMIQUE ET AUX ENERGIES …, published 2018).

On to TAMFIASKYEEMYPP-NH2 [CCNB1 250-264], for which the relative affinity is 4 in experiment [1]; 4 in [2]; 3 in [3]; 9 in experiment [4]; 22 in [5]; 82 in [6]. The relative affinity was found to be 70 in experiment [7]; 6 in experiment [8]; 34 in experiment [9]; 0.1 in experiment [10]; 1 in experiment [11].

In the case of SKYEEMYPPEIGDFA-NH2 [CCNB1 256-270], the relative affinity in experiment [12] amounted to 61; in experiment [13] it was 153; in experiment [14], 3; in [15], 603; in [16], 456; in experiment [17], 1370. In addition, the relative affinity in experiment [18] worked out at 894.

For the molecule PMLVPVPVSEPVPEP-NH2 [CCNB1 87-101], the relative affinity was 231 in [12]; 748 in [19]; 134 in [13]; 1500 in experiment [14]; 96 in experiment [16].

On to MELTMLDYDMVHFPP-NH2 [CCNB1 327-341], for which the relative affinity in experiment [19] came out at 139; in experiment [20] it was 32; in [13] it was 10; in experiment [14], 418; in experiment [16], 22; in [17], 216. The relative affinity in experiment [18] was 2; in experiment [21], 47.

In the case of NCVPKKMLQLVGVTA-NH2 [CCNB1 237-251], the relative affinity in experiment [19] was 1400; in [13] it was 65; in experiment [14], 4; in experiment [17], 87.

Turning to RPLPLHFLRRASKIG-NH2 [CCNB1 299-313], the relative affinity in experiment [1] was 35; in experiment [22] it was 13; in [3], 0.2; in experiment [4] it was 200; in [5] it was 63; in experiment [6] it was 26. In addition, the relative affinity in [7] was 624; in experiment [8], 0.1.

With HFPPSQIAAGAFCLA-NH2 [CCNB1 338-352], the relative affinity is 1400 in [12], 257 in experiment [13], 598 in experiment [14] and 188 in experiment [21].

Regarding LALKILDNGEWTPTL-NH2 [CCNB1 351-365], the relative affinity in experiment [12] stood at 624; in experiment [13], 52; in experiment [14] it was 648; in [15], 3060; in [16], 1000; in [17], 2330. In experiment [21], the relative affinity is 510.

On to DWLVQVQMKFRLLQE-NH2 [CCNB1 207-221], for which the relative affinity in experiment [1] worked out at 7; in [22] it was 49; in [2] it was 0.5; in experiment [3], 1; in experiment [4], 7; in [5], 38. Further, the relative affinity in experiment [6] was determined as 5; in experiment [8], 0.4; in experiment [9], 160; in [11], 171.

On to NTYTKHQIRQMEMKI-NH2 [CCNB1 275-289], for which the relative affinity in experiment [12] amounted to 43; in [19], 80; in [23] it was 158; in experiment [13], 85; in [15] it was 50; in experiment [16], 456. The same molecule had a relative affinity in [17] of 4.

With KKLPKPLEKVPMLVP-NH2 [CCNB1 77-91], the relative affinity in experiment [19] is 75; in experiment [17], 1630; in [18], 212; in [21], 474.

With SEYVKDIYAYLRQLE-NH2 [CCNB1 168-182], the relative affinity in experiment [1] was determined as 346; in experiment [2], 97; in experiment [3], 12; in [4] it was 12; in [5], 22; in experiment [6], 3. The results for the relative affinity in [8], in experiment [9] and in experiment [11] were 3, 30 and 127, respectively.

Turning to H-KNVVMVNQGLTKHMT-NH2 (not fully specified) [CCNB1 385-399], the relative affinity in experiment [20] came to 228; in experiment [23] it was 37; in [13], 0.02; in experiment [14], 4500; in experiment [15], 52; in experiment [16], 986. For the same molecule, the relative affinity is 766 in experiment [17], 116 in experiment [18] and 2 in experiment [21].

GDFAFVTDNTYTKHQ-NH2 [CCNB1 267-281]: the relative affinity was 22 in [1]; 0.2 in experiment [2]; 62 in experiment [3]; 86 in experiment [4]; 1500 in experiment [5]; 24 in experiment [6]. For the same molecule, the relative affinity in experiment [7] amounted to 1; in experiment [8], 1330; in [9], 38.

For the molecule ETMYMTVSIIDRFMQ-NH2 [CCNB1 221-235], the relative affinity in experiment [1] came to 1; in [22] it was 7; in experiment [2] it was 0.5; in experiment [3] it was 59; in experiment [4] it was 0.3; in [5], 89. The relative affinity in experiment [6] was 1; in experiment [7], 37; in experiment [8], 1; in experiment [9] it was 22; in experiment [10], 59; in experiment [11] it was 68.

For the molecule VQMKFRLLQETMYMT-NH2 [CCNB1 212-226], the relative affinity in [1] is 40; in [22], 683; in [2], 1; in [3] it was 1; in [4] it was 46; in experiment [5], 1. In addition, the relative affinity in experiment [6] worked out at 2; in experiment [7], 2; in experiment [8], 5; in [9], 34; in [10] it was 110; in experiment [11], 9.
